A protein production outcome set (Wang et al. 2014)

Assay: label from the status in PepcDB records

Row | Sequence | protein production
1 | MEVSERIIIGNKISKITIIANIALSILKILAGVFGKSSALIADGMHSFSDILSTVVVMLGLKLSEKPADESHPYGHERIEPALTKILAVILLVTALMIFYCGLTTIIGGNYQIPGNITIIAALISIFTKEWMYKYTKKGAEQIESSALLADAWHHRSDAFSSVGTLIGVVGAKLGYPILDPIASIVISLFIAKMAFEIYFKALNQLLDRAADSKTIEEIKKIILSVDGVLEIDVLKTRIHSNKIYVDVEISVDKDLSLIEAHNISENVHSQIESKLKRVKHCMVHVNPYLK | failed
2 | MTDPADRPLIERIRACRLCADRFAATHTAHEPRPVVWFRPGARLLIAGQAPGARVHASGRPFTDPSGDRLRDWLGIGEETFYDRSRVAVVPMAFCFPGYNSQGADLPPPPVCGKTWHNQVMGELGEMPLSVLVGGHALKYHLGARSPVTETVAAWRDHAPRVFALPHPSWRNTGWLRKNPWFEAELLPVLRARVKEVLNEPDRSANPD | failed
3 | MSLKIAVLDDYQDAVRKLDCFNLLQDHEVKVFNNTVKGVGQLAARVADVEALVLIRERTRVTRQLLDRLPKLKIISQTGRVSRDAGGHIDLDACTDKGVVVLEGKGSPVAPAELTWALVMAAQRRIPQYVASLKHGAWQQSGLKSTTMPPNFGIGRVLKGQTLGIFGYGKIGQLVAGYGRAFGMNVLVWGRENSKERARADGFAVAESKEALFEQSDVLSVHLRLNDETRSIITVADLTRMKPTALFVNTSRAELVEENGLVTALNRGRPGMAAIDVFETEPILQGHTLLRMENCICTPHIGYVERESYEMYFGIAFQNILDVLQGNVDSVANPTALAPALIRAEGHHHHHH | not failed
4 | MKWRCLIYIETRGDILFMTKWFNVGKIVNTHGVRGEIRVISRTDFPEERYKVGNTLYISNEKGTDYLPVKVTSHRQHKTFDLLTFEGYNNVDEVEKFKGSLIKVPEEQLGELAEGEYYYHEIIGCSVVTEEGEALGTIKEILSPGANDVWVIKRPKGQDLLIPYIDDVVLQVNIENKLVTIHVMEGLLLEHHHHHH | not failed
5 | FDQAPVLVVGDVMLDRYWHGGTSRISPEAPVPVVKVDQIEDRPGGAANVALNIAALGAPASLVGVTGDDEAAESLTNSLKAAGVVARFQRIADQPTIVKLRVMSRHQQLLRIDFEEPFNTDPLALSAEVYSLLDGIKVLVLSDYGKGALKNHQALIQAARKRGIPVLADPKGKDFAIYRGASLITPNLSEFEAIVGHCEDEAQLVTKGAQLMQELDLGALLVTRGEHGMTLLRPDQQALHLPARAREVFDVTGAGDTVISTLAAAIAAGEELPHAVALANLAAGIVVGKLGTAAISAPELRRAIQR | failed
6 | MLPLNDYLQPFGLVIKPMQEDLTPYLGIKVKSEAGQEKITFVAAHSPAAMAGISPQDLLLAINGVRVGAEQLSLRLKDYQANDMIQLTVFHQDLLRTVDVVLASPQANRYEVVPIADPSDSQLEHHHHHH | not failed
7 | MNKQNKQNKFSPEVRERSVRLVQEHRGEYPSLWAAVESIAPKIGCVPSTLLEWVKRSEINNGAREGLTSSERDRLKALERENRELRRANEILKTASAFFAQAELDRVLKKLEHHHHHH | not failed
8 | MPEISPYVTKTEVQLMMAGLDYRKTNGSRDTAPKGQLPWIVDAAQAIADSTFIRVHIERKYDVDLDFGLTGRERAQAWAIERMIENQLGWVSTYFRFLEPANFERGPARAFDQAPGHLRDELRQGLREAVAANIRAVGVGRHLREEVAWLGGLSLRALDELLEDKAYLMRDAYPVGVDATAFAMLAAIMTPFFDSPLRRQAERYPRLVAYVGRMMERFYPAHPWGLRQAA | failed
9 | MNTVCTACMATNRLPEERIDDGAKCGRCGHSLFDGEVINATAETLDKLLQDDLPMVIDFWAPWCGPCRSFAPIFAETAAERAGKVRFVKVNTEAEPALSTRFRIRSIPTIMLYRNGKMIDMLNGAVPKAPFDNWLDEQLSRDPNS | not failed
10 | GSPLLAPAFEPSLGPPPEGAPPTIEAWFSFRSPYSWLFMPRIRHLAQAYGATLELRPILPMVMRGLAVPRIKTIYITLDCKREAERVGLPFGRIVDPVGAGAERALAVLHHAMALGLGEQFAELGLKAAFADGIALAEDEGLYGVARRAGLTDAQTAAALADDSWRQRAETNRAALLEAGLWGAPTFRITGHQAHWGQDRLYMLEEDLRAAMQGAAAPR | failed
11 | MLQRLFIFLLIFLILPDIYLYLRFIVHLTAKRWLRILYWLPAFLLSAGLLYLVYFSNNAFAERHTQAIGWFSIFFFLFTAPKLLLSLCTIIGVPFHKWLRWPRTPFICTGLTLAVISIVMIIYGSFIGRTQFDVKEVTYSSPKLPSAFDGYRIVQLSDIHIGSWQGNASAIQKLVKLVNEQQADLIVFTGDLVNHRAVELNDFQDILAGLKAKDGVYSILGNHDYGPYFHWKSKDEQDDNLNDLLQRQAAMGWKLLNNSHTILIQGSDSIALIGVENEGEPPFSQYADLPEAMRGTEGMFQILLSHNPTHWRREVLPQTYIDLMLAGHTHAMQLKFGNHSPSSYIYPEWSGMYLEGTRGLYVNEGIGYVGLPFRFGAWPEITVLTLRQ | failed
12 | MEWEIVNLDMTFKVDAPVEEVFRAWTKPSLFKQWFMTTEETNKVAKNQFEINGDWEIIDVREGVEYRAIGTYIDIVSPYKLTFSFKMPQFSELEDIITVEFVDLTGATEVKFNQGIKVPFEGDTNDFEADKTEVKKEMETGYNLMFERLKQLCEG | failed
13 | MPEIHQSIAQHYHERTKYDPETIASKSQRLDWAKQPVPFKEYKIGSAIDLKPYLQETPEVFVNDTNGQWWQRLSRLLFRSYGLTARMPSMGNTVYLRAAPSAGGLYPAEVYVVSRGTPLLSPGLYNYQCRTHSLIHYWESDVWQSLQEACFWHPALESTQLAIIVTAVFYRSAWRYEDRAYRRICLDTGHLLGNIELSAAITDYRPHLIGGFIDEAVNDLLYIDPLQEGAIAVLPLADLLDIQQNISPGCTALPSATETNYPQVPDGELLKYFHHHTQISASITGKLNLPTVIQEKSLEDKYNFPFCLKISTVSAPIYWGENLSDLEITMHKRRSTRAYNGEELTFDELKALLDFTYQPQNYIDQSLDNSPDYFDLNLIETFIAVCGVQGLEAGCYYYAPKAQELRQIRFKNFRRELHFLCLGQELGRDAAAVIFHTSDLKSAIAQYGDRVYRYLHMDAGHLGQRLNLAAIQLNLGVSGIGGFFDDQVNEVLGIPNDEAVIYITTLGRPR | not failed
14 | MGSSHHHHHHSSGLVPRGSHMLLREVTREERKNFYTNEWKVKDIPDFIVKTLELREFGFDHSGEGPSDRKNQYTDIRDLEDYIRATAPYAVYSSVALYEKPQEMEGWLGTELVFDIDAKDLPLRRCEHEPGTVCPICLNDAKEIVRDTVIILREELGFNDIHIIYSGRGYHIRVLDEWALKLDSKSRERILSFVSASEIEDVEEFRKLLLNKRGWFVLNHGYPRAFRLRFGYFILRIKLPHLINAGIRKSIAKSILKSKEEIYEEFVRKAILAAFPQGVGIESLAKLFALSTRFSKSYFDGRVTVDLKRILRLPSTLHSKVGLIAKYVGTNERDVMRFNPFKHAVPKFRKEEVKVEYKKFLESLGT | not failed
15 | MADLYTVVSSIILLFIVLDPVGVSPYVASIVARRPEGERERIVRTALASAGAILVAFTLIGVAVLDILGVSMDEFKVAAGLLLLIYATADLFEIKIGYSEPSGDEVAIFPLATPLLAGPGSIATVMYIMGSSGIAVALIAILVNLVLAYPILHASLKLVRLLGRHGSLLVAKFTAFLMVGFAVSIIFDGLRGIVPGVFS | failed
16 | METGTHVRDVIFPGGNAAPDAGSVVAAIHQLPTLRLLSLDAHGRVLDWINWQDAACLYARDAVSWTLGEPCMQIHGGISRLTGERSTLELHPIIAARGHARSRALDPTPTLSNTALFARDAQLCMYCGQHFSRPHLTRDHVMPVSKGGRDSWENVVTACFQCNSRKANRTPQQAHMPLLAVPYRPSWIEHLILSNRNILSDQMAFLRAQLPKRSKLSLQAGAPRVADPG | failed
17 | MMNTTTLDRYFDLFDASRTDEKAFDDLISLFSDEITFVLNGQEQHGIDAWKQFVRMVFTANQDIKHMYAGWVPSETGDTMETRWAVCGKSADGSVFTQDGTDIARLNADGKIVYLANVPDDTAMFNQYND | not failed
18 | QGHLVHMTVVSGSNVTLNISESLPENYKQLTWFYTFDQKIVEWDSRKSKYFESKFKGRVRLDPQSGALYISKVQKEDNSTYIMRVLKKTGNEQEWKIKLQVLDPVPKPVIKIEK | not failed
19 | MDTNGVLYAANMTNALAKEIPESKWDIQLIPELGTLRKLFIHIVRVRDVYRDGLKTGSIKFPGRLASDEHRLLDELERSMEELVFEFKQTTFNSIKMGENYLSIMELLGTVIQHEGIHQGQYYVALKQSGINLPKQWVQDWHM | not failed
